# Reference: patent US20200190151A1 (Scripps Research, published 2020)
# No end group written: not given here.
# B1: CllTx1-Fc fusion protein (Fc fusion)
# chain: ITINVKCTSPQQCLRPCKDRFGQHAGGKCINGKCKCYP
# modifications: ends and bridges not checked; also: fused to human IgG1 Fc fragment, limits and linker not given here
# notes: mature; also called recombinant CllTx1-Fc fusion protein; not shown: human IgG1 Fc fragment
# Target: T1, Kv1.3 (human potassium voltage-gated channel subfamily A member 3) (human, UniProt P22001 1-575)
# T1 construct: whole, on cells
# T1 sequence (P22001 whole entry): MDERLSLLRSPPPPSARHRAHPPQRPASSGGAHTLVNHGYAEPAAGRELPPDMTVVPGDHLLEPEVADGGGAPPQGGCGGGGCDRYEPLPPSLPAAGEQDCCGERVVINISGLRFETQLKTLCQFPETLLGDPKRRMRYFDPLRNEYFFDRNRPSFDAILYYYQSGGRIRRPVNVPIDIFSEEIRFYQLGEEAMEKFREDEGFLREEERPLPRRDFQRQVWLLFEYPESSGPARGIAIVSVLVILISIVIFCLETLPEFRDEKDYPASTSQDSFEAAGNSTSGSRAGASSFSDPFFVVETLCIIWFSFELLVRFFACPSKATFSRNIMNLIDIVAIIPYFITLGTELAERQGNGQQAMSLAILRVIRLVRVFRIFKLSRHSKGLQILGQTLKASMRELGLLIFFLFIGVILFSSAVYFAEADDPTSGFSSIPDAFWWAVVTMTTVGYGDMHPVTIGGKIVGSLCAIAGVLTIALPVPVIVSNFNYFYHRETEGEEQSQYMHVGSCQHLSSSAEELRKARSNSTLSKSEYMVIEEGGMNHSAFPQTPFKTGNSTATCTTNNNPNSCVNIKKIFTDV
# Experiment: immunofluorescence staining of Kv1.3 expressing HEK293F cells, flow cytometry
binder,measurement,value
B1,binding result,binds
